Data reported in patent US20240002514A1.

Target: human PD-L1 expressed on the cell surface (CHO cells expressing human PD-L1; Promega CS187103 / 187103 cells) (human) (UniProt Q9NZQ7)
Sequence (Q9NZQ7 19-290): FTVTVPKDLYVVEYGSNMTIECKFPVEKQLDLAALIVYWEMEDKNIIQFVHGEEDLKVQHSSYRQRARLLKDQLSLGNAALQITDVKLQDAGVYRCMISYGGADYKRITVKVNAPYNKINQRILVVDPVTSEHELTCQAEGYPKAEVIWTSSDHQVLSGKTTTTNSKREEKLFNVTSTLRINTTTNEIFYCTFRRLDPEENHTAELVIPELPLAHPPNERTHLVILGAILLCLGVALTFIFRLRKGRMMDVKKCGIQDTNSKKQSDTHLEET

B1: 29E.2A3 (antibody, from another filing, V domains shown)
VH: EVQLQQSGPELVKPGASVKMSCKASGYTFTSYVMHWVKQKPGQGLEWIGYVNPFNDGTKYNEMFKGKATLTSDKSSSTAYMELSSLTSEDSAVYYCARQAWGYPWGQGTLVTVSA
VL: DIVLTQSPASLAVSLGQRATISCRATESVEYYGTSLVQWYQQKPGQPPKLLIYAASSVDSGVPARFSGSGSGTDFSLTIHPVEEDDIAMYFCQQSRRVPYTFGGGTKLEIK
Binder B1 has an EC50, PD-1/PD-L1 blockade (% PDL1 Blockade, NFAT-luciferase reporter) of 0.17 nM.
